Earlier results, collected in paper PMC3733499 (Thrombosis and haemostasis, 2013).

Tests used:
[1] = target: prothrombinase (FXa/FVa/PL) (Homo sapiens, UniProt P00742+P12259); conditions: only in the presence of FVa; ref [19]; cited from earlier work
[2] = test system: FXa binding to FVa; conditions: ref [19]; cited from earlier work
[3] = target: T1, FVa (Homo sapiens, UniProt P07225); conditions: ref [19]; cited from earlier work
T1 sequence (P07225 42-676): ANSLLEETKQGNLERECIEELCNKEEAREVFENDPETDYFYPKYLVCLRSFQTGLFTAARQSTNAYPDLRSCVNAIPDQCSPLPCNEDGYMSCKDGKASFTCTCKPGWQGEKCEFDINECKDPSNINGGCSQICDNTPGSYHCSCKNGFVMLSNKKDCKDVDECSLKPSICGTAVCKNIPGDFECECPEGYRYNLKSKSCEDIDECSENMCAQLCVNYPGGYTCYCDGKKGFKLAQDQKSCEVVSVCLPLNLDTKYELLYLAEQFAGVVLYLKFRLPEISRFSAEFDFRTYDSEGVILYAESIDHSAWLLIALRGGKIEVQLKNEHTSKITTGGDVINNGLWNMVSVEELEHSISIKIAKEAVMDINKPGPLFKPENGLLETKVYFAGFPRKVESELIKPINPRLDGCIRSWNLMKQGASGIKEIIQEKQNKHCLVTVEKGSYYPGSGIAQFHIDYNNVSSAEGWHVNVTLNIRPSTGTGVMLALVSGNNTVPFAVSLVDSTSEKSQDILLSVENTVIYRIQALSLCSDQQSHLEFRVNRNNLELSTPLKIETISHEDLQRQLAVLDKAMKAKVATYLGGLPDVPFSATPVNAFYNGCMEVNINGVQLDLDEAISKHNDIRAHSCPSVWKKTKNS

prothrombinase (FXa/FVa/PL), sequence (P12259 29-737 limits assumed): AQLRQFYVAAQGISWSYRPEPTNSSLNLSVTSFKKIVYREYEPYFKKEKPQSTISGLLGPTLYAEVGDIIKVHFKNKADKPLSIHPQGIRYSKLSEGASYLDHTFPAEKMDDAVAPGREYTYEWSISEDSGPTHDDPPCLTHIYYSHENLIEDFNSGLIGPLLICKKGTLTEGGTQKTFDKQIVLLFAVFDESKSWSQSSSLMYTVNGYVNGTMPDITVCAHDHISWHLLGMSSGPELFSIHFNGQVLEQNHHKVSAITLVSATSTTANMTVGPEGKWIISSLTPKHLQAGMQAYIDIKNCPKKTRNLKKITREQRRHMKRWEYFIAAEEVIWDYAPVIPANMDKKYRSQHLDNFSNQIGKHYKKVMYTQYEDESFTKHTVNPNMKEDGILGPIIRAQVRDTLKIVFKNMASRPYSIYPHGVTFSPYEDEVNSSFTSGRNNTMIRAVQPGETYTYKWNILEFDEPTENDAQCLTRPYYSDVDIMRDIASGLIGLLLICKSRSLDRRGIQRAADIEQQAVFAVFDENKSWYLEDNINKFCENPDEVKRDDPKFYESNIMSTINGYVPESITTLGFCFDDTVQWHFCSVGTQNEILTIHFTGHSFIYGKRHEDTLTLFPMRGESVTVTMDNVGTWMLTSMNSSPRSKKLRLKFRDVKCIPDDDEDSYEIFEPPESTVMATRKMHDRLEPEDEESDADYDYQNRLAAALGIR
prothrombinase (FXa/FVa/PL), sequence (P12259 1574-2224 limits assumed): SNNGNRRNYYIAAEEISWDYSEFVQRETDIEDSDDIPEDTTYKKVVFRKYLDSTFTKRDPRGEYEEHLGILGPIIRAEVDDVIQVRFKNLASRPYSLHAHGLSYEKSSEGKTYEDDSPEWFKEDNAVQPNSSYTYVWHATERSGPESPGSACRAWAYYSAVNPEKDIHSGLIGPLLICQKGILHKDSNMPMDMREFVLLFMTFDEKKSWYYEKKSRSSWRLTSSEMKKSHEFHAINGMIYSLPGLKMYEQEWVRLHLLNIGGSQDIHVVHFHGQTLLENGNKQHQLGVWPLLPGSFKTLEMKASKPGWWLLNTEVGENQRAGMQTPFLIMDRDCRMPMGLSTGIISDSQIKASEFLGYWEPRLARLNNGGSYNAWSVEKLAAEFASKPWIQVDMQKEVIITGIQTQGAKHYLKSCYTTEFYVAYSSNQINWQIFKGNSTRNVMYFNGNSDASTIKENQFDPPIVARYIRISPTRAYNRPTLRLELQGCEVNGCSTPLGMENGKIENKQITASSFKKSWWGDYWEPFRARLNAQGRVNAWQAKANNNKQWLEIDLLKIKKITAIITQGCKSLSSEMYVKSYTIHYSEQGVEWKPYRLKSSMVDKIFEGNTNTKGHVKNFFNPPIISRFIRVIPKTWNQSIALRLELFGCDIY
prothrombinase (FXa/FVa/PL), sequence (P00742 41-179 partner limits assumed): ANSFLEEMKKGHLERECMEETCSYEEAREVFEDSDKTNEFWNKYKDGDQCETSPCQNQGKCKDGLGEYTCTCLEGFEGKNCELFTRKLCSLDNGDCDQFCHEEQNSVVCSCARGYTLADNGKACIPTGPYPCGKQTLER
prothrombinase (FXa/FVa/PL), sequence (P00742 235-488 partner limits assumed): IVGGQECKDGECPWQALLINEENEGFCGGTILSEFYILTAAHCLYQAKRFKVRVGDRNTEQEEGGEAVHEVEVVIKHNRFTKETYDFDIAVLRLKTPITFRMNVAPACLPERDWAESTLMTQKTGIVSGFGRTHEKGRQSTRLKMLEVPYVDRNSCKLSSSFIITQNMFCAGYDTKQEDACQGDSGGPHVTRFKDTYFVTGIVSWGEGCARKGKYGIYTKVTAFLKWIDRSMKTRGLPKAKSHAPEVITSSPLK

In the case of “621–635 peptide: peptide representing PS residues 621–635 near the C-terminus (RAHSCPSVWKKTKNS; UniProt P07225 662-676, looked up, fragment)”, the “Inhibition of prothrombinase activity” value [1] is listed as “inhibited prothrombinase activity only in the presence of FVa”, the “Competition with FXa for a binding site on FVa” value [2] is listed as “appeared to compete with FXa for a binding site on FVa” and the “Inhibition of PS binding to FVa” value [3] is listed as “inhibited PS binding to FVa”.
